These results are taken from article PMC10397247.

The target in experiment [1] is T1, 4H3844-AA.
T1 chain: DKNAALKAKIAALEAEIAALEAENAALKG
The experiment can be described thus: two-hybrid library CCmax.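 Further: natural log of median RNA to DNA barcode read ratio; higher means stronger binding.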 The note with it: mean of both orientations.

The target of experiment [2] is T2, 4H3655-AA.
T2 chain: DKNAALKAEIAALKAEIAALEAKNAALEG
Put plainly: two-hybrid library CCmax.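 Further: natural log of median RNA to DNA barcode read ratio; higher means stronger binding.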 The note with it: mean of both orientations.

Experiment [3] concerns the target T3, 4H906-AA.
T3 chain: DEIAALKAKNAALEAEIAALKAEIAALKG
Put plainly: two-hybrid library CCmax.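 Further: natural log of median RNA to DNA barcode read ratio; higher means stronger binding.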 The note with it: mean of both orientations.

For experiment [4], the target named is T4, 4H3627-AA.
T4 chain: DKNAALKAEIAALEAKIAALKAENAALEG
The experiment can be described thus: two-hybrid library CCmax.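 Further: natural log of median RNA to DNA barcode read ratio; higher means stronger binding.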 To be noted: mean of both orientations.

Experiment [5] concerns the target T5, 4H2729-AA.
T5 chain: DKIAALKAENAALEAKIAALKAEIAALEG
Put plainly: two-hybrid library CCmax. To be noted: mean of both orientations.

The target of experiment [6] is T6, 4H2944-AA.
T6 chain: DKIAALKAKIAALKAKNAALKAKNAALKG
The experiment can be described thus: two-hybrid library CCmax. To be noted: mean of both orientations.

Experiment [7] concerns the target T7, 4H3112-AA.
T7 chain: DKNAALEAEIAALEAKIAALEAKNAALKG
The experiment can be described thus: two-hybrid library CCmax.

Experiment [8] has as its target T8, 4H566-AA.
T8 chain: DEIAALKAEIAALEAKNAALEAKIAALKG
The experiment can be described thus: two-hybrid library CCmax. To be noted: mean of both orientations.

Experiment [9] has as its target T9, 4H2837-AA.
T9 chain: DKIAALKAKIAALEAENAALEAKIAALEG
The experiment can be described thus: two-hybrid library CCmax. The note with it: mean of both orientations.

The target of experiment [10] is T10, 4H780-AA.
T10 chain: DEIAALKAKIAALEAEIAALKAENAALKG
The experiment can be described thus: two-hybrid library CCmax. The note with it: mean of both orientations.

The target of experiment [11] is T11, 4H605-AA.
T11 chain: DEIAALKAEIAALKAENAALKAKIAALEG
The experiment can be described thus: two-hybrid library CCmax. To be noted: mean of both orientations.

For experiment [12], the target named is T12, 4H3921-AA.
T12 chain: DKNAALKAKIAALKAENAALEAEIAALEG
Put plainly: two-hybrid library CCmax. To be noted: mean of both orientations.

Experiment [13] addresses T13, 4H3606-AA.
T13 chain: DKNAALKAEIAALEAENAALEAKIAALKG
Put plainly: two-hybrid library CCmax. To be noted: mean of both orientations.

In experiment [14] the target is T14, 4H48-AA.
T14 chain: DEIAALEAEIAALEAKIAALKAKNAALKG
Put plainly: two-hybrid library CCmax. The note with it: mean of both orientations.

The target of experiment [15] is T15, 4H993-AA.
T15 chain: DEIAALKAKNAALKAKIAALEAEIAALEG
The experiment can be described thus: two-hybrid library CCmax. To be noted: mean of both orientations.

Experiment [16] deals with T16, 4H678-AA.
T16 chain: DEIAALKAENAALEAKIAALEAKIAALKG
Put plainly: two-hybrid library CCmax. To be noted: mean of both orientations.

For experiment [17], the target named is T17, 4H2642-AA.
T17 chain: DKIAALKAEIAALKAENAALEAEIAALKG
Put plainly: two-hybrid library CCmax. The note with it: mean of both orientations.

The target in experiment [18] is T18, 4H335-AA.
T18 chain: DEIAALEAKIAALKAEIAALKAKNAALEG
Put plainly: two-hybrid library CCmax. To be noted: mean of both orientations.

The target of experiment [19] is T19, 4H317-AA.
T19 chain: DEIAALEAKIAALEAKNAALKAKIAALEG
The experiment can be described thus: two-hybrid library CCmax. To be noted: mean of both orientations.

In experiment [20] the target is T20, 4H429-AA.
T20 chain: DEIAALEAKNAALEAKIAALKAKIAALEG
The experiment can be described thus: two-hybrid library CCmax. To be noted: mean of both orientations.

In experiment [21] the target is T21, 4H2949-AA.
T21 chain: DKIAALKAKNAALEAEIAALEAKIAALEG
The experiment can be described thus: two-hybrid library CCmax. To be noted: mean of both orientations.

In experiment [22] the target is T22, 4H2883-AA.
T22 chain: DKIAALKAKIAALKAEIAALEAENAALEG
Put plainly: two-hybrid library CCmax. The note with it: mean of both orientations.

In experiment [23] the target is T23, 4H881-AA.
T23 chain: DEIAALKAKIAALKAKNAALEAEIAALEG
The experiment can be described thus: two-hybrid library CCmax. The note with it: mean of both orientations.

Experiment [24] concerns the target T24, 4H2617-AA.
T24 chain: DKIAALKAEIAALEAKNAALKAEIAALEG
The experiment can be described thus: two-hybrid library CCmax.

The target in experiment [25] is T25, 4H3427-AA.
T25 chain: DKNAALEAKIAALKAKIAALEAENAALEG
The experiment can be described thus: two-hybrid library CCmax. To be noted: mean of both orientations.

The target of experiment [26] is T26, 4H3343-AA.
T26 chain: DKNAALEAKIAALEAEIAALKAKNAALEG
Put plainly: two-hybrid library CCmax. The note with it: mean of both orientations.

Experiment [27] concerns the target T27, 4H794-AA.
T27 chain: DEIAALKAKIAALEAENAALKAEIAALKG
The experiment can be described thus: two-hybrid library CCmax. To be noted: mean of both orientations.

In experiment [28] the target is T28, 4H342-AA.
T28 chain: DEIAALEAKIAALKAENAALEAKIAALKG
The experiment can be described thus: two-hybrid library CCmax. The note with it: mean of both orientations.

The target of experiment [29] is T29, 4H2754-AA.
T29 chain: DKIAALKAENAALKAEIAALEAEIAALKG
Put plainly: two-hybrid library CCmax. To be noted: mean of both orientations.

In experiment [30] the target is T30, 4H717-AA.
T30 chain: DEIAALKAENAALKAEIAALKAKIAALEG
Put plainly: two-hybrid library CCmax. To be noted: mean of both orientations.

The target of experiment [31] is T31, 4H454-AA.
T31 chain: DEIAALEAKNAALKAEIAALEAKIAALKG
Put plainly: two-hybrid library CCmax. To be noted: mean of both orientations.

The target in experiment [32] is T32, 4H855-bN.
T32 chain: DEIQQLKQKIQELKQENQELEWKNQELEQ
The experiment can be described thus: two-hybrid library CCNG1.

The target of experiment [33] is T33, 4H968-bN.
T33 chain: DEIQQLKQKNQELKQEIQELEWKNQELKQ
Put plainly: two-hybrid library CCNG1.

Experiment [34] has as its target T34, 4H780-bN.
T34 chain: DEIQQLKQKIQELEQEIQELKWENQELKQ
The experiment can be described thus: two-hybrid library CCNG1.

Experiment [35] addresses T35, 4H953-bN.
T35 chain: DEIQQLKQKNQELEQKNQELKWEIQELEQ
Put plainly: two-hybrid library CCNG1.

The target in experiment [36] is T36, 4H797-bN.
T36 chain: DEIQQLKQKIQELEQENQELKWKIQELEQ
The experiment can be described thus: two-hybrid library CCNG1.

Experiment [37] addresses T37, 4H918-bN.
T37 chain: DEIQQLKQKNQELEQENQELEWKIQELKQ
Put plainly: two-hybrid library CCNG1.

Experiment [38] addresses T38, APC8516-AA.
T38 chain: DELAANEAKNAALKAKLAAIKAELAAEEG
The experiment can be described thus: two-hybrid library CCmax. To be noted: mean of both orientations.

For experiment [39], the target named is T39, APC8401-AA.
T39 chain: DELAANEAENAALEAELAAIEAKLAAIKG
Put plainly: two-hybrid library CCmax. The note with it: mean of both orientations.

Experiment [40] deals with T40, APC9182-AA.
T40 chain: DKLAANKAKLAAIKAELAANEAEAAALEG
Put plainly: two-hybrid library CCmax. The note with it: mean of both orientations.

Experiment [41] has as its target T41, APC9291-AA.
T41 chain: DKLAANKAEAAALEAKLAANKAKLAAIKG
Put plainly: two-hybrid library CCmax. The note with it: mean of both orientations.

The target of experiment [42] is T42, APC9141-AA.
T42 chain: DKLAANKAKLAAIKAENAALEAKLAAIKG
Put plainly: two-hybrid library CCmax. To be noted: mean of both orientations.

Experiment [43] deals with T43, APC5531-AA.
T43 chain: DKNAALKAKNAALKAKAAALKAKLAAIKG
Put plainly: two-hybrid library CCmax.

The target of experiment [44] is T44, APC9806-AA.
T44 chain: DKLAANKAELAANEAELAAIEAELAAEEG
The experiment can be described thus: two-hybrid library CCmax. The note with it: mean of both orientations.

Experiment [45] deals with T45, APC6088-AA.
T45 chain: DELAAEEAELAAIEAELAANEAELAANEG
The experiment can be described thus: two-hybrid library CCmax. The note with it: mean of both orientations.

For experiment [46], the target named is T46, APC7524-AA.
T46 chain: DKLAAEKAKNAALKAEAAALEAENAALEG
The experiment can be described thus: two-hybrid library CCmax. To be noted: mean of both orientations.

In the case of DKIAALKAEIAALEAKNAALKAEIAALEG [4H2617-AA], the interaction score in experiment [1] is -1.39; in [2], -1.76; in experiment [3], -0.74; in experiment [4], 0.895; in [5], 2.54; in experiment [6], -0.31. Moreover, the interaction score in experiment [7] is -1.06; in [8], 2.42; in [9], 2.22; in [10] it was -1.9; in experiment [11] it was 0.918; in [12] it was 0.979. The interaction score in [13] was 2.03; in experiment [14] it was -0.511; in experiment [15], -0.54; in experiment [16], 0.485; in experiment [17], 2.25; in experiment [18], 0.00978. Moreover, the interaction score in experiment [19] was 1.65; in experiment [20], 0.393; in [21], 1.53; in experiment [22], -1.02; in experiment [23] it was 1.37; in experiment [24] it was 1.29. Also, the interaction score in experiment [25] is -0.774; in [26], -1.31; in experiment [27], 1.15; in experiment [28], 2.32; in experiment [29] it was -1.08; in [30], -2.09. Besides, in experiment [31], the interaction score was 2.09.

For the molecule DEIQQLKQKIQELEQEIQELKWENQELKQ [4H780-bN], the interaction score is -0.732 in [32]; -2.05 in experiment [33]; 1.99 in experiment [34]; -0.748 in experiment [35]; -0.0265 in experiment [36]; -0.346 in [37].

As for DKNAALKAKNAALKAKAAALKAKLAAIKG [APC5531-AA], the interaction score was -1.6 in experiment [38]; -1.77 in experiment [39]; -1.96 in [40]; -1.72 in experiment [41]; -1.97 in experiment [42]; -1.63 in experiment [43]. For the same molecule, the figures for the interaction score in [44], in experiment [45] and in experiment [46] were -1.95, -1.44 and -1.84, respectively.
